Measurements from patent publication US20110008841A1 (Amgen, published 2011).
Where a chain is given by its changes, count along the chain named.

B1: Germline version A (antibody, V domains shown)
VH: QVQLVQSGAEVKKPGASVKVSCKASGYTFTRYGISWVRQAPGQGLEWMGWISTYSGNTNYAQKLQGRVTMTTDTSTSTAYMELRSLRSDDTAVYYCARRQLYFDYWGQGTLVTVSS
VL: EIVMTQSPATLSVSPGERATLSCRASQSVSSNLAWYQQKPGQAPRLLIYDASTRATGIPARFSGSGSGTDFTLTISSLQSEDFAVYYCQQYDNWPLTFGGGTKVEIK
B2: Germline version B (antibody, V domains shown)
VH: B1 VH
VL: B1 VL with D70E
B3: AMH5/AML5 (antibody, V domains shown)
VH: QVQLQESGPGLVKPSETLPLTCTVSGGSIRSYYWSWIRQPAGKGLEWIGRIYRSGNTIYNPSLKSRVTMSIDTSKNQFSLTLSSVTAADTAVYYCARENYSESSGLYYYYGMDVWGQGTTVTVSS
VL: DIQMTQSPSSLSASVGDRVTITCRASQGIRNDLGWYQQKPGKAPKRLIYAASSFQSGVPSRFSGSGSGTGFTLTISSLQPEDFATYYCLQHNSYPPTFGQGTKVEIK
notes: also called AM-5
B4: AMH1/AML1 (antibody, IgG2, V domains shown)
VH: QVQLQESGPGLVKPSETLSLTCTVSGGSISNYYWNWIRQSPGKGLEWIGDIYYSGSTNYNPSLKSRVTISVDTSKNQFSLKLSSVTTADTAVYYCARDGELANYYGSGSYQFYYYYGMDVWGQGTTVTVSS
VL: B3 VL with Q3L, F54L, G70E, Y94N, P96F, Q100P, E105D
notes: Fully human mAb from IgG2 XenoMouse mice; also called AM-1; antibody H
B5: AMH11/AML11 (antibody, IgG2, V domains shown)
VH: QVQLVESGGGVVQPGRSLRLSCATSGITFSSYGMHWVRQAPGKGLEWVAVIWYDGSNKYYADSVKGRFTISRDNSKNTLYLQMNSLRAEDTAVYYCARDTKDYWGQGTLVTVSS
VL: EIVMTQSPATLSVSPGERATLSCRASQSVSSNLAWYQQKPGQAPRLLIYGASTRAAGIPARFSGGGSGTAFTLTISNLQSEDFAVYYCQHYINWPKWTFGQGTKVDIK
notes: Fully human mAb from IgG2 XenoMouse mice; also called AM-11; antibody A
B6: AMH22/AML22 (antibody, IgG2, V domains shown)
VH: B1 VH with T53A
VL: B1 VL with A19V, Y36F, L46P, T56A
notes: Fully human mAb from IgG2 XenoMouse mice; also called AM-22; antibody I
B7: AMH21/AML21 (antibody, IgG2, V domains shown)
VH: EVQLVESGGGSVQPGGSLRLSCAASGFTFSSYSMNWVRQAPGKGLEWVSIISSRSSIIHYADSVKGRFTISRDNAKNSLYLQMNSLRDEDTAVYYCARPKVGGGMDVWGQGTTVTVSS
VL: DIQMTQSPSSLSASVGDRVTITCRASQGISNYLAWYQQKPGKFPELLIYAASTLQSGVPSRFSGSGSGTDFTLTISSLQPEDVATYYCQKYNRAPFTFGPGTKVDIK
notes: Fully human mAb from IgG2 XenoMouse mice; also called AM-21; antibody Q
B8: AMH15/AML15 (antibody, V domains shown)
VH: QVQLVESGGGVVQPGRSLRLSCAASGFTFSSYGMQWVRQAPGKGLEWVAVIWYDGNKKYYADSVKGRFTISRDNSKNTLYLQMNSLRAEDTAVYYCARGRVRDYYYGMDVWGQGTTVTVSS
VL: B1 VL with A19V, Y36F, L46P, T56A
notes: also called AM-15
B9: AMH14/AML14 (antibody, V domains shown)
VH: B1 VH
VL: B1 VL with Y36F, L46P, I58V
notes: Fully human mAb from IgG2 XenoMouse mice; Biotinylated in the Octet assay; also called AM-14; antibody K
B10: AMH13/AML13 (antibody, IgG2, V domains shown)
VH: B8 VH
VL: DIVMTQTPLSLSVTPGQPASIACKSSQSLLHSDGKTYLYWYLQKPGQPPQLLIYEVSTRFSGVPDRFSGSGSGTDFTLKISRVEAEDVGVFYCMQSIQLPLTFGGGTKVEIK
notes: Fully human mAb from IgG2 XenoMouse mice; also called AM-13
B11: AMH17/AML17 (antibody, V domains shown)
VH: B1 VH with S17A, S25T, F29L, R31S, T53A, N59K, R99K, Y102V
VL: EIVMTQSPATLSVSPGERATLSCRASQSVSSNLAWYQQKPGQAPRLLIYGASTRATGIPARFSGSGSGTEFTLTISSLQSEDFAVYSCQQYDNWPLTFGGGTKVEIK
notes: Fully human mAb from IgG2 XenoMouse mice; also called AM-17; antibody N
B12: AMH16/AML16 (antibody, IgG2, V domains shown)
VH: B1 VH with R31S, T53A, S55N, N59K, A79V, R99K, Y102V
VL: B1 VL with V29I, S31T, N32S, D50G, A51T, D70E, Y87F, N93I
notes: Fully human mAb from IgG2 XenoMouse mice; also called AM-16; antibody O
B13: AMH12/AML12 (antibody, IgG2, V domains shown)
VH: B1 VH with F29L, R31S, S55K, R99K, Y102V
VL: B1 VL with V29I, N32S, D50G, D70E, D82N
notes: Fully human mAb from IgG2 XenoMouse mice; also called AM-12; antibody M

Target: Human IL-17RA full-length expressed on the surface of cells (human, UniProt Q96F46 33-866)
Assay: cell-based or functional assay

| IC50, HFF bioassay (ligand not named on the sheet) | Binder |
| --- | --- |
| ~107 nM | B1 |
| ~103 nM | B2 |

Target: T1, cynomolgus IL-17RA on cells (cynomolgus)
T1 construct: whole, on cells; also called CHO-cynoIL-17RA; cyno IL-17RA+ CHO cells
Assay: FACS, biotin-huIL-17A on cyno IL-17RA+ cells with non-clonal supernatant; lower = more inhibition

| MFI | Binder |
| --- | --- |
| 9 | B3 |
| 11 | B4 |
| 9 | B5 |
| 18 | B6 |

Target: T1, cynomolgus IL-17RA on cells
Assay: FACS, biotin-huIL-17A on cyno IL-17RA+ CHO cells with non-clonal supernatant; lower = more inhibition
Experimental: The anti-IL-17RA antibodies were characterized. Non-clonal hybridoma supernatants were prepared in volumes of 1-2 mls (the Ig concentrations were not determined for these supernatants).

| MFI | Binder |
| --- | --- |
| 6 | B7 |
| 6 | B8 |
| 10 | B9 |

Target: T1, cynomolgus IL-17RA on cells
Assay: as above
Remark: another data set of the same source
Experimental: Non-clonal hybridoma supernatants were prepared in volumes of 1-2 mls (the Ig concentrations were not determined for these supernatants). […] Anti-IL-17RA non-clonal hybridomas were selected for sub-cloning based on their performance in the CHO-IL-17RA FACS assay and HFF bioassay.

| MFI | Binder |
| --- | --- |
| 6 | B10 |
| 8 | B11 |
| 6 | B12 |
| 6 | B13 |
